Article PMC9975944 (The EMBO Journal, 2023)

Target: T1, GFP-SOX7 (UniProt Q9BT81 1-388)
T1 sequence: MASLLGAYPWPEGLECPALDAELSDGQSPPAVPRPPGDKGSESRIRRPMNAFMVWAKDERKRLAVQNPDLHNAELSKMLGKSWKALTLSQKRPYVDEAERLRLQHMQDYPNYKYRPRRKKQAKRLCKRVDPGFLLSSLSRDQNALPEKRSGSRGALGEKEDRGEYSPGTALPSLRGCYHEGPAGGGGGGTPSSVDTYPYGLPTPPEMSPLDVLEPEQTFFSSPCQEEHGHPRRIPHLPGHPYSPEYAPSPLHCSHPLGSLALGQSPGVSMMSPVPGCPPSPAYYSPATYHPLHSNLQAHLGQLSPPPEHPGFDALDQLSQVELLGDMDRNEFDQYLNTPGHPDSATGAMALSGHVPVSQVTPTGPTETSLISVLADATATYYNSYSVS
Test: single-molecule two-colour coincidence spectroscopy

B1: HEY1-Cherry (natural protein)
chain: MKRAHPEYSSSDSELDETIEVEKESADENGNLSSALGSMSPTTSSQILARKRRRGIIEKRRRDRINNSLSELRRLVPSAFEKQGSAKLEKAEILQMTVDHLKMLHTAGGKGYFDAHALAMDYRSLGFRECLAEVARYLSIIEGLDASDPLRVRLVSHLNNYASQREAASGAHAGLGHIPWGTVFGHHPHIAHPLLLPQNGHGNAGTTASPTEPHHQGRLGSAHPEAPALRAPPSGSLGPVLPVVTSASKLSPPLLSSVASLSAFPFSFGSFHLLSPNALSPSAPTQAANLGKPYRPWGTEIGAF
B1 was tested, and the coincidence ratio was 0.66.
